The target of this assay is T1, integrin α5β1 on cells (human (endogenous in K562 and MCF10A), UniProt P08648 42-1049; P05556 21-798).
T1 construct: integrin α5 subunit, endogenous; integrin β1 subunit, endogenous; also called intact α5β1; cellular α5β1; source: endogenous, on K562 cells (flow cytometry) and on MCF10A Cas-mScarlet cells (TIRF microscopy)
Put plainly: flow cytometry on cells; competition: unlabelled competitor titrated against 5 nM CF647-NeoNectin on K562 cells, L15 medium with 1% BSA, 2 h at room temperature; KD = EC50/(1 + CL/KD,L). The conditions noted are these: one partner purified. A general note: Flow cytometry measures light scatter and fluorescence of single cells or particles in a stream.

What is called Kd is the equilibrium constant for the complex coming apart.

T1 sequence (P08648 42-1049, chain 1 of 2): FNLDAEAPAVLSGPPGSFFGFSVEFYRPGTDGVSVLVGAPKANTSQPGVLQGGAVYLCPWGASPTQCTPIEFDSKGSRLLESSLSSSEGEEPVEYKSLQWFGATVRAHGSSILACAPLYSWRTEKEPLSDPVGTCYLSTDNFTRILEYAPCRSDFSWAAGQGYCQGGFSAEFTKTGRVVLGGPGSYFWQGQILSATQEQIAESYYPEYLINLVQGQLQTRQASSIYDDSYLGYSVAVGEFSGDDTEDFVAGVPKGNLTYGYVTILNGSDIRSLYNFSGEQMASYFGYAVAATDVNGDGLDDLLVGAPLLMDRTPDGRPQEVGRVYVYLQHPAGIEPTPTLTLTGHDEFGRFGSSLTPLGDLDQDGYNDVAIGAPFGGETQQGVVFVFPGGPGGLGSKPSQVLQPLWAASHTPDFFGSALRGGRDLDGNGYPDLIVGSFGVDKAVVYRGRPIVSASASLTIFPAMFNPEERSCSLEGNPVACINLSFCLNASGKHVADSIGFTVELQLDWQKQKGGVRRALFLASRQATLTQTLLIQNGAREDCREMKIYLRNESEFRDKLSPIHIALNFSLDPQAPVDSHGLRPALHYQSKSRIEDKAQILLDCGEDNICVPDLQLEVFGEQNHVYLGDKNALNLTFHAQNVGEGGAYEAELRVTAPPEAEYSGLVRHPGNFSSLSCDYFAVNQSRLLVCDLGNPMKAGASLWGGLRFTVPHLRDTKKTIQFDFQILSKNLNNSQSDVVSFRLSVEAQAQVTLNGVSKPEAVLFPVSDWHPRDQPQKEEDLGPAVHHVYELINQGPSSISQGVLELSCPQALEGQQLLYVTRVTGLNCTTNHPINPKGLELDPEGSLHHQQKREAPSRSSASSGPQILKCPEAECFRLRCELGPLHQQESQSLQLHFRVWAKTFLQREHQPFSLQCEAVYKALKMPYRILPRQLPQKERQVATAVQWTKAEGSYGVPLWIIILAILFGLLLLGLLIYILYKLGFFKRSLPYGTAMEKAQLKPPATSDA
T1 sequence (P05556 21-798, chain 2 of 2): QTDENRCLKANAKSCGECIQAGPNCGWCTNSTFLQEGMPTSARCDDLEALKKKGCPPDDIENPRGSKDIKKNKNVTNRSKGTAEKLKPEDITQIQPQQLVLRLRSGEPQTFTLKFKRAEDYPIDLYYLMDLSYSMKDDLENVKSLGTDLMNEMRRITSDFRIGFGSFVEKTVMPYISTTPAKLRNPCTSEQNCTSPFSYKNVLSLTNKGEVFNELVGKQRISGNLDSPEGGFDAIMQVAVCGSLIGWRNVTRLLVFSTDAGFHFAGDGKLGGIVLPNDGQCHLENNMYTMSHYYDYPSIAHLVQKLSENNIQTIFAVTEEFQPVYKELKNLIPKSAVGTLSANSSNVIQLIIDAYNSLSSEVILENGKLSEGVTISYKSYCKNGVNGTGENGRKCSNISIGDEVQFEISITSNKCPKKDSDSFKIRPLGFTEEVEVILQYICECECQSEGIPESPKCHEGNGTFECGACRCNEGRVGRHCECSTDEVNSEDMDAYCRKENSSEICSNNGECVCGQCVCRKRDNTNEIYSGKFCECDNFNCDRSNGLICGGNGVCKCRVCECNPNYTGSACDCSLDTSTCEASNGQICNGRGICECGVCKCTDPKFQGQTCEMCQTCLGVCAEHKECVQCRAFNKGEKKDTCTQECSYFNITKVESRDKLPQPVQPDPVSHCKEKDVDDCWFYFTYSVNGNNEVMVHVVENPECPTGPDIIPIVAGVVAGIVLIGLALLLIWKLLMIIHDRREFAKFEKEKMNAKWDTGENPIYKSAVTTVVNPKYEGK

B1: RGD peptide (GRRGDGATGH) (peptide)
peptide: GRRGDGATGH
notes: source: synthetic peptide
B1: the Kd was 150 µM.
